Results reported in patent publication US20240368300A1 (UCME BIOSCIENCE S R L, published 2024).

Legend:
[1] = target: T1, recombinant soluble human CD93 extracellular domain fused to a 6xHis tag (human, UniProt Q9NPY3 24-580); assay: SPR (BIAcore), 4E1 immobilized on chip, recombinant CD93 injected, 1:1 fit
T1 construct: extracellular domain; also called recombinant CD93; soluble CD93 protein
T1 sequence: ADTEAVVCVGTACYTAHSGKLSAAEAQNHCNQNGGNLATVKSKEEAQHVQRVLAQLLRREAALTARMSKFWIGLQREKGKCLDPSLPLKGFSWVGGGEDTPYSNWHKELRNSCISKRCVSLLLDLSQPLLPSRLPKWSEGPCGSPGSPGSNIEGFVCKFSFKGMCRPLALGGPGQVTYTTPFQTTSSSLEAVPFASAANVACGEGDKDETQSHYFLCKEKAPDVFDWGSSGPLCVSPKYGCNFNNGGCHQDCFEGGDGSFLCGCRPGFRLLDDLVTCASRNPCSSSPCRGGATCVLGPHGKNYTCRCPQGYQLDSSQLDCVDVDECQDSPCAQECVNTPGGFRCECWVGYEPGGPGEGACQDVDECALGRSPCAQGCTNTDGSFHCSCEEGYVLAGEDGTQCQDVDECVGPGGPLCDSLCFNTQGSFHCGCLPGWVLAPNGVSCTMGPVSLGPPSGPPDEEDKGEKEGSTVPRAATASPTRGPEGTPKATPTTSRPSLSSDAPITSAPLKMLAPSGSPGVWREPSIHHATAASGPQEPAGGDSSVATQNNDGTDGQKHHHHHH
Experimental: The binding analysis was performed using a BIAcore 3000 equipped with a CM5 sensor chip. Briefly, 4E1 antibody was immobilized via amine groups on a CM5 sensor chip following standard procedures (flow rate 5 μl/min). For the immobilization, 4E1 diluted in 10 mM Na acetate pH 4.0 at the concentration of 10 μg/ml was injected for 360 sec over the dextran matrix on flow cell, which had been previously activated with a mixture of EDC-NHS for 420 sec. After injection of the antibody, a pulse of Ethanolamine 1M was performed to neutralize activated groups. A reference flow cell to be used as blank, was simultaneously subjected to identical procedures, but the injection of Antibody, which was substituted with injection of dilution buffer alone (HBS-EP+). Recombinant purified CD93 protein was diluted in HBS-EP+ at different concentration (1 μg/ml, 2.5 μg/ml, […] and 20 μg/ml) and injected for 180 s at a flow rate of 60 μl/min on flow cell 4 and on reference flow cell 3. […] Sensorgrams illustrated in the figure are obtained by subtraction from sensorgrams on Fc4 of those obtained on Fc3. Kinetic rates were calculated applying a 1:1 binding as fitting model using the Bia T200 evaluation software 2.0.1

[2] = target: T1, recombinant soluble human CD93 …; assay: SPR (BIAcore), rec4E1 immobilized on chip, recombinant CD93 injected, 1:1 fit
Experimental: The binding analysis was performed using a BIAcore 3000 equipped with a CM5 sensor chip. Briefly, rec4E1 or 4E1 antibodies were immobilized via amine groups on a CM5 sensor chip following standard procedures. For the immobilization, the antibody diluted in 10 mM Na acetate pH 4.0 at the concentration of 10 μg/ml was injected for 360 sec over the dextran matrix on flow cell, which had been previously activated with a mixture of EDC-NHS for 420 sec. After injection of the antibody, a pulse of Ethanolamine 1 M was used to neutralize activated groups. A reference flow cell to be used as blank was simultaneously subjected to identical procedures, but the antibody was substituted with dilution buffer (HBS-EP+). Recombinant purified CD93 protein was diluted in HBS-EP+ at different concentration (10, 25, 50, 100, 250, and 500 ng/mL) and injected for 180 s at a flow rate of 60 μl/min on all flow cells. […] Kinetic rates were calculated applying a 1:1 binding as fitting model using the Bia T200 evaluation software 2.0.1.

human full-length CD93 = target: T2, human full-length CD93 (human, UniProt Q9NPY3 22-652); assay: immunofluorescence on fixed, permeabilized late spreading HUVECs
T2 construct: whole, on cells; Used in two settings; also called human CD93 protein
T2 sequence (looked up): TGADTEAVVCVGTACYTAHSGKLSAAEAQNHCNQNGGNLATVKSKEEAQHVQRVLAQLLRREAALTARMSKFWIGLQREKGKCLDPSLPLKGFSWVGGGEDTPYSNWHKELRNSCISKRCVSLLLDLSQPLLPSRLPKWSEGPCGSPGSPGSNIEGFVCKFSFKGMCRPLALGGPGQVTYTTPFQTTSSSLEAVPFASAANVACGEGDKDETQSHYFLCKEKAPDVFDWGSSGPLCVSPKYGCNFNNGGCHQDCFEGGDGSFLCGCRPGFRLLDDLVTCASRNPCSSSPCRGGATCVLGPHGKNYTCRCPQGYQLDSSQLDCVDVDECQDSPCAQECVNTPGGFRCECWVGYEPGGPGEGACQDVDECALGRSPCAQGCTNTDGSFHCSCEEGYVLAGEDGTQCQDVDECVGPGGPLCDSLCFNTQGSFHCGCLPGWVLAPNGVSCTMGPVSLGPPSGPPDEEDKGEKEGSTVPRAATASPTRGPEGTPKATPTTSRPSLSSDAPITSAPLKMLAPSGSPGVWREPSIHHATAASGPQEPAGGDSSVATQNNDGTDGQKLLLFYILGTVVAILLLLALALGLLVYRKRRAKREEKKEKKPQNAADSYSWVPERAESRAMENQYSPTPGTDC
Experimental: Zip Alexa Fluor Rapid Antibody Labeling kit (Thermo Fisher Scientific) was used to efficiently and quickly label the mAb 4E1 with Alexa Fluor 488 following the manufacturer's instructions. Briefly, 10 μl of 1 M sodium bicarbonate solution were added to 100 μl of 4E1 solution (1 mg/ml). Next, the antibody solution was incubated for 15 min at room temperature with the fluorochrome solution (Component B) and used in immunofluorescence experiments.
Cells were seeded onto gelatin-coated glass coverslips and fixed in 3% paraformaldehyde for 15 min at room temperature during the late spreading phase. Samples were permeabilized with 0.1% Triton X-100 in PBS, and blocked with 0.3% w/v BSA in PBS, each for 15 min at room temperature. Next, cells were washed with PBS and incubated 1 h at room temperature with Alexa Fluor 488-labeled 4E1 and rabbit anti-MMRN2 antibodies. Then, samples were washed three times with PBS/0.1% Tween-20 and incubated with secondary Alexa Fluor 568-labeled anti-rabbit antibodies (Thermo Fisher Scientific), diluted at 25 μg/mL in PBS/0.1% Tween-20. After washing, coverslips were mounted with Mowiol mounting medium. Fluorescent images were captured using a Leica TCS SP2 AOBS confocal laser-scanning microscope and overlaid images were produced. A Leica HCX PL APO Ibd.BL 63×/1.40 oil objective was used. […]

B1: anti-CD93 monoclonal antibody 4E1 (from hybridoma) (antibody, IgG1, V domains shown)
VH: QEQLQQPGTELVKPGASVRLSCKTSGYTFASYTLHWVKQTPGQGLDWIGAIYPGNGDTSYNQKFKDKATLTADKSSSTAYMQLSNLTSEDSAVYYCARLDWYFDLWGAGTTVTVS
VL: DIVLTQSPTSLAVSLGQRATISCKASQSVDYDGDSYMNWYQQKPGQPPRLLIYAASNLESGIPARFSGSGSGTDFTLNIHPVEEEDAATYYCQQNNEDPRTFGGGTKLEIK
notes: Mouse hybridoma antibody, full length, isotype IgG1 with k light chain; also called mAb 4E1; anti-CD93 4E1 mAb
Kd [1]: 0.45 nM

B2: recombinant anti-CD93 monoclonal antibody rec4E1 (antibody, V domains shown)
VH: QEQLQQPGTELVKPGASVRLSCKTSGYTFASYTLHWVKQTPGQGLDWIGAIYPGNGDTSYNQKFKDKATLTADKSSSTAYMQLSNLTSEDSAVYYCARLDWYFDLWGAGTTVTVS
VL: DIVLTQSPTSLAVSLGQRATISCKASQSVDYDGDSYMNWYQQKPGQPPRLLIYAASNLESGIPARFSGSGSGTDFTLNIHPVEEEDAATYYCQQNNEDPRTFGGGTKLEIK
notes: Whole recombinant IgG1 expressed in CHO cells from the pTRIOZ vector; The light chain constant region is not described; also called recombinant 4E1
Kd [2]: 0.00509 nM

B3: Alexa Fluor 488-labeled 4E1 (antibody, V domains shown)
VH: QEQLQQPGTELVKPGASVRLSCKTSGYTFASYTLHWVKQTPGQGLDWIGAIYPGNGDTSYNQKFKDKATLTADKSSSTAYMQLSNLTSEDSAVYYCARLDWYFDLWGAGTTVTVS
VL: DIVLTQSPTSLAVSLGQRATISCKASQSVDYDGDSYMNWYQQKPGQPPRLLIYAASNLESGIPARFSGSGSGTDFTLNIHPVEEEDAATYYCQQNNEDPRTFGGGTKLEIK
modifications: Alexa Fluor 488 dye conjugated to the antibody (site and chain not stated)
notes: mAb 4E1 (mouse IgG1 k) labelled with the Zip Alexa Fluor Rapid Antibody Labeling kit; also called conjugated 4E1
binding result (human full-length CD93): binds
